# Experimental data published in US11981740B2, “BAFF-R antibodies and uses thereof” (CITY OF HOPE, priority 2016, dated 2024).
# B1: C55: chimeric anti-BAFF-R mAb from clone 55 containing human IgG1 constant regions (antibody, V domains shown)
# VH: QVTLKESGPGILKPSQTLSLTCSFSGFSLSTSGMGVGWIRQPSGKGLEWLAHIWWDDDKYYNSSLKSHLTISKDTSRNQVFLKITSVDTADTATYYCARSFGYGLDYWGQGTTLTVSSAS
# VL: DIQMTQTTSSLSASLGDRVTISCSASQDISNYLNWYQQKPDGTVKLLIYYTSSLHSGVPSRFSGSGSGTDYSLTISSLEPEDIATYYCHQFSELPWTFGGGTKLEIKRT
# Key:
# [1] = test system: JeKo-1-CD20-KO tumor cells; assay: In vivo JeKo-1-CD20-KO xenograft; set-up: species or system NSG mice
# Text: (§1) FIGS. 6A and 6B are images and FIG. 6C are graphs showing chimeric antibodies targeting human BAFF-R elicited in vivo therapeutic effects against drug resistant B-cell tumors. Bioluminescence images of mice challenged with luciferase-expressing tumors JeKo-1-CD20-KO cells (FIG. 6A) or ibrutinib-resistant Z-138 cells (FIG. 6B) followed by antibody treatments as in FIG. 4. Control group mice received PBS, NK cells alone, or rituximab on the same schedule. […] Tumor free rate and survival differences between experimental and all control groups were analyzed by log-rank test (**P<0.001). Data are representative of three independent experiments.
# (§2) In vivo studies. For tumor models, stable, luciferase-expressing tumors lines were established for bioluminescent imaging in mouse models. Briefly, a luciferase gene was introduced into tumor lines by a lentivirus gene delivery system (pLenti7.3/V5-DEST Gateway Vector Kit, Life Technologies, Carlsbad, CA). The minimum lethal dose per mouse was determined for each tumor cell line by dose titration. Tumor cells were injected intravenously (IV) and mice were monitored by in vivo bioluminescence imaging for minimum tumor dose to ensure engraftment. Minimum lethal tumor doses were: 1×10^6 JeKo-1, 5×10^5 RS4; 11, 5×10^5 JeKo-1-CD20-KO, or 2.5×10^4 Z-138 cells. […]
# Mino cells = assay: Antibody internalization by flow cytometry; format: cell-based; conditions: 37° C. for 1 hour
# Procedure: Mino cells were incubated with mAb C90 (0.05 μg/10^6 cells) at 4° C. for 20 minutes followed by incubation at 37° C. for 1 hour. Flow cytometry analysis was performed with anti-mouse IgG-APC. Cells were gated for surface localized antibodies (OUT) and loss of cell surface staining (IN).
# JeKo-1-CD20-KO clone 25 = assay: ADCC on rituximab-resistant JeKo-1-CD20-KO; format: cell-based; conditions: E:T=20:1
# Procedure: FIGS. 5A, 5B and 5C are images or graphs showing chimeric BAFF-R antibodies induce ADCC on drug resistant lymphoma models in vitro. FIG. 5A is a scatterplot of FACS analysis showing CD20 binding on JeKo-1 cells following CRISPR/HDR knock-out of CD20 gene. CD20 expression on selected CD20−/−clone #25 compared to WT JeKo-1. ADCC effects measured by chromium-51 release after incubation with C55, C90, or rituximab and effectors NK cells (E:T=20:1). Percentage of cell specific lysis of target cells: rituximab-resistant JeKo-1-CD20-KO (FIG. 5B) and ibrutinib-resistant Z-138 and SP49-IR (FIG. 5C). All data are representative of two or more identical experiments. Data are shown as the mean±s.d. of triplicate samples. *P<0.05 compared with NK cells by two-tailed Student's t-test.
# (§3) Cytotoxicity assays. Target cells (L cells, human tumor lines, primary patient samples) were labeled with chromium-51 (51Cr, Perkin Elmer, Waltham, MA) for a 51Cr release assay. Briefly, antibodies and effectors (NK cells or complement serum standard [Sigma Aldrich, St. Louis, MO]), were added to labeled target cells and incubated up to 18 hours. NK cells were enriched from PBMC (NK cell enrichment kit, Stemcell Technologies, Vancouver, Canada). 51Cr released into supernatant was detected with a Wizard Automatic Gamma Counter (Perkin Elmer).
# Generation of JeKo-1-CD20-KO. […]
# [2] = test system: BAFF-R-expressing L cells and JeKo-1; assay: ADCC chromium-51 release assay, L cells, JeKo-1, U266; format: cell-based; conditions: NK cells E:T 20:1; BAFF-R positive vs negative targets
# Procedure: Antibody-induced cytotoxicities measured by chromium-51 release after incubation with C55, C90, or rituximab and effectors (NK cells or complement containing serum). NK effector cell to target ratio (E:T) of 20:1. […] Data are shown as the mean±s.d. of triplicate samples. *P<0.05 compared with NK cells by two-tailed Student's t-test.
# FIG. 12 is a graph showing chimeric antibodies induced ADCC against BAFF-R expressing L cells. BAFF-R-expressing D2C L cells (targets) were labeled with chromium-51 followed by incubation overnight with chimeric mAb+NK cells (effector to target ratio, 20:1). Culture supernatant was analyzed for released chromium.
# as §3
# [3] = test system: JeKo-1 (MCL), SU-DHL-6 (DLBCL), Raji (Burkitt lymphoma), and RL (FL); assay: Flow cytometry binding to NHL cell lines; set-up: species or system human; conditions: chimeric antibodies conjugated to Alexa Fluor 488
# Text: FIGS. 1A, 1B, 1C, 1D and 1E are FACS images showing generation and specificity of novel monoclonal antibodies against human BAFF-R. FIG. 1A is a FACS analysis of cell surface expression of hBAFF-R-GFP fusion protein in mouse fibroblast L cells. Gated on GFP-positive cells, engineered L cell clone (right plot) is compared to parental L cells (left plot). Clone D2C was selected for further studies. FIGS. 1B, 1C, 1D and 1E are FACS traces of fluorescent counts of anti-BAFF-R antibodies binding cell lines and patient samples. […] BAFF-R-negative 293T embryonic kidney cell line was used as a control. […] Parental L cells and secondary anti-hIgG-APC antibodies only were used as controls. […] The data are representative of three independent experiments. For all of FIGS. 1B-1E, the traces from top to bottom as shown in the figures correlate with the variables (e.g., antibody type or cell type) used from top to bottom shown below or next to the figures.
# FIG. 10 are results of FACS analyses showing hBAFF-R mAbs recognized non-Hodgkin lymphoma cell lines in vitro. […] The traces from top to bottom as shown in the figures correlate with the variables (e.g., antibody type or cell type) used from top to bottom shown next to the figures.
# [4] = test system: RS4; 11 (acute lymphoblastic leukemia, ALL); assay: In vivo RS4;11 ALL xenograft, bioluminescence imaging; conditions: RS4;11 challenged NSG mice
# Text: (§4) FIG. 4A is a schematic showing treatment schedule following Day 0 tumor challenge with minimum lethal dose of tumors. Treatments were given by IV tail vein injections. FIGS. 4B and 4C are images showing chimeric antibodies targeting human BAFF-R elicited in vivo therapeutic effects against B-cell tumors. Bioluminescence images of mice challenged with luciferase-expressing tumors: JeKo-1 (MCL) (FIG. 4B) or RS4; 11 (ALL) (FIG. 4C). Experimental groups received treatment of chimeric BAFF-R mAbs (C55 or C90, as indicated). Control group mice received PBS, NK cells alone, or rituximab on the same schedule. Data are representative of three independent experiments.
# as §2
# JeKo-1 MCL cell line = assay: In vivo JeKo-1 MCL xenograft, bioluminescence imaging; set-up: species or system NSG mice; conditions: compared with PBS or NK cells alone
# Text: as §4, §2
# [5] = test system: ibrutinib-resistant Z-138; assay: In vivo ibrutinib-resistant Z-138 xenograft; set-up: species or system NSG mice; conditions: Z-138 tumor-bearing mice; compared with PBS or NK only
# Text: as §1, §2
# [6] = test system: primary CLL (n=3) and MCL (n=2) samples; assay: ADCC on primary samples from rituximab-treated patients; format: cell-based, human; conditions: patients previously treated with rituximab; E:T=20:1
# Procedure: FIGS. 3A and 3B are graphs showing BAFF-R monoclonal antibodies induce in vitro Antibody Dependent Cell-Mediated Cytotoxicity (ADCC) against primary B-cell tumors. Antibody-dependent cell-mediated cytotoxicity (ADCC) effects were measured by chromium-51 release after incubation with C55, C90, or rituximab and effectors (NK cells). […] Data are shown as the mean±s.d. of triplicate samples. *P<0.05 compared with NK cells by two-tailed Student's t-test.
# as §3
molecule,measurement,setting,value
B1,tumor free and long-term overall survival,[1]; 80-day curves,significant antitumor effects
same,tumor burden by bioluminescent imaging,[1]; Day 20,no visible tumors
same,internalization upon binding BAFF-R,Mino cells,limited internalization
same,sensitivity to antibody-mediated cytotoxicity,JeKo-1-CD20-KO clone 25,retained sensitivity
same,antibody-dependent cell-mediated cytotoxicity (ADCC),[2],"specifically against BAFF-R-expressing L cells and JeKo-1, but not BAFF-R negative L cells nor the BAFF-R negative human multiple myeloma line, U266"
same,direct binding to NHL lines,[3],exhibited direct binding
same,tumor growth,[4],markedly retarded tumor growth
same,tumor growth,JeKo-1 MCL cell line,significant retardation of tumor growth
same,antitumor effects,[5],significant effects were observed
same,ADCC killing of primary samples,[6],sensitive to killing by ADCC
